According to patent US20030177513A1:

Target: thrombin
Experiment: cell-based or functional assay

Substance “recombinant human Antithrombin III (ATIII) in the milk of the cloned transgenic goat CFF6-1 (from UniProt P01008 33-464)” has an ATIII activity by thrombin inhibition (two-stage colorimetric endpoint assay), milk at day 5 of 20.5 U/ml and an ATIII activity by thrombin inhibition (two-stage colorimetric endpoint assay), milk at day 9 of 14.6 U/ml.
